Measured values as given in patent US9993529B2, “Stable formulations of a hyaluronan-degrading enzyme” (Halozyme, Inc., priority 2011, dated 2018).

Experiment: RP-HPLC insulin apparent solubility / percent recovery (content)
Settings: 7 days at 2-8° C.
Procedure: Apparent solubility was measured as the percent insulin recovery as compared to the initial formulations/conditions.
Samples were prepared by withdrawing 100 μL from each vial at every time point and centrifuging prior to loading. Samples were stored in an autosampler at 4° C. prior to use, and were considered stable for 3 days after preparation. All samples were tested in duplicate.
For insulin, 20 μL was injected for each HPLC run.
To determine the apparent solubility, the peak area of insulin/insulin analog main peak and desamido peak were integrated and combined together to calculate the percentage relative to the standards. […] The data were processed using Design-Expert® 7.0 (StatEase) and the “historical data” feature. Insulin percent purity was expressed as the percent of main insulin versus all insulin species.

Regular Insulin: mature human insulin, SEQ ID NOS: 103 and 104
Solubility of regular Insulin (0.2% methylparaben + […] m-cresol, pH 6.6, NaCl 50 mM): 15.3% | Solubility of regular Insulin (0.2% methylparaben + […] m-cresol, pH 6.6, NaCl 80 mM): 9.0% | Solubility of regular Insulin (0.2% methylparaben + […] m-cresol, pH 6.6, NaCl 140 mM): 5.8% | Solubility of regular Insulin (0.2% methylparaben + […] m-cresol, pH 6.8, NaCl 50 mM): 34.1% | Solubility of regular Insulin (0.2% methylparaben + […] m-cresol, pH 6.8, NaCl 110 mM): 11.4% | Solubility of regular Insulin (0.2% methylparaben + […] m-cresol, pH 7.0, NaCl 50 mM): 86.9% | Solubility of regular Insulin (0.2% methylparaben + […] m-cresol, pH 7.0, NaCl 80 mM): 46.6% | Solubility of regular Insulin (0.2% methylparaben + […] m-cresol, pH 7.0, NaCl 140 mM): 15.9% | Solubility of regular Insulin (0.2% methylparaben + […] m-cresol, pH 7.2, NaCl 80 mM): 90.6% | Solubility of regular Insulin (0.2% methylparaben + […] m-cresol, pH 7.2, NaCl 110 mM): 47.1% | Solubility of regular Insulin (0.2% methylparaben + […] m-cresol, pH 7.2, NaCl 140 mM): 32.9% | Solubility of regular Insulin (0.2% methylparaben + […] m-cresol, pH 7.4, NaCl 50 mM): 98.1% | Solubility of regular Insulin (0.2% methylparaben + […] m-cresol, pH 7.4, NaCl 80 mM): 97.7% | Solubility of regular Insulin (0.2% methylparaben + […] m-cresol, pH 7.4, NaCl 110 mM): 94.6% | Solubility of regular Insulin (0.2% methylparaben + […] m-cresol, pH 7.4, NaCl 140 mM): 59.1% | Solubility of regular Insulin (0.2% methylparaben + […] m-cresol, pH 7.6, NaCl 50 mM): 98.1% | Solubility of regular Insulin (0.2% methylparaben + […] m-cresol, pH 7.6, NaCl 80 mM): 97.9% | Solubility of regular Insulin (0.2% methylparaben + […] m-cresol, pH 7.6, NaCl 140 mM): 95.4% | Solubility of regular Insulin (0.2% phenol + […] m-cresol, pH 6.6, NaCl 50 mM): 26.8% | Solubility of regular Insulin (0.2% phenol + […] m-cresol, pH 6.6, NaCl 80 mM): 8.7% | Solubility of regular Insulin (0.2% phenol + […] m-cresol, pH 6.6, NaCl 110 mM): 6.5% | Solubility of regular Insulin (0.2% phenol + […] m-cresol, pH 6.6, NaCl 140 mM): 5.8% | Solubility of regular Insulin (0.2% phenol + […] m-cresol, pH 6.8, NaCl 50 mM): 38.4% | Solubility of regular Insulin (0.2% phenol + […] m-cresol, pH 6.8, NaCl 80 mM): 17.1% | Solubility of regular Insulin (0.2% phenol + […] m-cresol, pH 6.8, NaCl 140 mM): 6.5% | Solubility of regular Insulin (0.2% phenol + […] m-cresol, pH 7.0, NaCl 50 mM): 100.3% | Solubility of regular Insulin (0.2% phenol + […] m-cresol, pH 7.0, NaCl 80 mM): 35.7% | Solubility of regular Insulin (0.2% phenol + […] m-cresol, pH 7.0, NaCl 110 mM): 17.7% | Solubility of regular Insulin (0.2% phenol + […] m-cresol, pH 7.0, NaCl 140 mM): 11.6% | Solubility of regular Insulin (0.2% phenol + […] m-cresol, pH 7.2, NaCl 80 mM): 92.2% | Solubility of regular Insulin (0.2% phenol + […] m-cresol, pH 7.2, NaCl 110 mM): 37.4% | Solubility of regular Insulin (0.2% phenol + […] m-cresol, pH 7.2, NaCl 140 mM): 18.9% | Solubility of regular Insulin (0.2% phenol + […] m-cresol, pH 7.4, NaCl 80 mM): 99.2% | Solubility of regular Insulin (0.2% phenol + […] m-cresol, pH 7.4, NaCl 110 mM): 87.8% | Solubility of regular Insulin (0.2% phenol + […] m-cresol, pH 7.4, NaCl 140 mM): 40.6% | Solubility of regular Insulin (0.2% phenol + […] m-cresol, pH 7.6, NaCl 80 mM): 99.2% | Solubility of regular Insulin (0.2% phenol + […] m-cresol, pH 7.6, NaCl 110 mM): 98.5% | Solubility of regular Insulin (0.2% phenol + […] m-cresol, pH 7.6, NaCl 140 mM): 82.2% | Solubility of regular Insulin ([…] phenol + […] m-cresol, pH 6.6, NaCl 50 mM): 31.2% | Solubility of regular Insulin ([…] phenol + […] m-cresol, pH 6.6, NaCl 80 mM): 18.6% | Solubility of regular Insulin ([…] phenol + […] m-cresol, pH 6.6, NaCl 140 mM): 12.9% | Solubility of regular Insulin ([…] phenol + […] m-cresol, pH 6.8, NaCl 50 mM): 66.6% | Solubility of regular Insulin ([…] phenol + […] m-cresol, pH 6.8, NaCl 80 mM): 24.9% | Solubility of regular Insulin ([…] phenol + […] m-cresol, pH 7.0, NaCl 50 mM): 96.7% | Solubility of regular Insulin ([…] phenol + […] m-cresol, pH 7.0, NaCl 80 mM): 80.8% | Solubility of regular Insulin ([…] phenol + […] m-cresol, pH 7.0, NaCl 110 mM): 32.9% | Solubility of regular Insulin ([…] phenol + […] m-cresol, pH 7.0, NaCl 140 mM): 17.1% | Solubility of regular Insulin ([…] phenol + […] m-cresol, pH 7.2, NaCl 80 mM): 96.4% | Solubility of regular Insulin ([…] phenol + […] m-cresol, pH 7.2, NaCl 110 mM): 58.7% | Solubility of regular Insulin ([…] phenol + […] m-cresol, pH 7.2, NaCl 140 mM): 33.1% | Solubility of regular Insulin ([…] phenol + […] m-cresol, pH 7.4, NaCl 50 mM): 96.7% | Solubility of regular Insulin ([…] phenol + […] m-cresol, pH 7.4, NaCl 80 mM): 97.3% | Solubility of regular Insulin ([…] phenol + […] m-cresol, pH 7.4, NaCl 110 mM): 94.2% | Solubility of regular Insulin ([…] phenol + […] m-cresol, pH 7.4, NaCl 140 mM): 57.9% | Solubility of regular Insulin ([…] phenol + […] m-cresol, pH 7.6, NaCl 50 mM): 97.2% | Solubility of regular Insulin ([…] phenol + […] m-cresol, pH 7.6, NaCl 80 mM): 97.1% | Solubility of regular Insulin ([…] phenol + […] m-cresol, pH 7.6, NaCl 110 mM): 97.1% | Solubility of regular Insulin ([…] phenol + […] m-cresol, pH 7.6, NaCl 140 mM): 91.7%
